Assay results as given in US20150010589A1 (published 2015).

T1: soluble collagen type III (pepsin-digested, non-fibrillar; BD Biosciences) (human, UniProt P02461 168-1196)
T1 construct: domain: pepsin-digested, soluble non-fibrillar (tertiary structure, triple helical); also called collagen III
T1 sequence: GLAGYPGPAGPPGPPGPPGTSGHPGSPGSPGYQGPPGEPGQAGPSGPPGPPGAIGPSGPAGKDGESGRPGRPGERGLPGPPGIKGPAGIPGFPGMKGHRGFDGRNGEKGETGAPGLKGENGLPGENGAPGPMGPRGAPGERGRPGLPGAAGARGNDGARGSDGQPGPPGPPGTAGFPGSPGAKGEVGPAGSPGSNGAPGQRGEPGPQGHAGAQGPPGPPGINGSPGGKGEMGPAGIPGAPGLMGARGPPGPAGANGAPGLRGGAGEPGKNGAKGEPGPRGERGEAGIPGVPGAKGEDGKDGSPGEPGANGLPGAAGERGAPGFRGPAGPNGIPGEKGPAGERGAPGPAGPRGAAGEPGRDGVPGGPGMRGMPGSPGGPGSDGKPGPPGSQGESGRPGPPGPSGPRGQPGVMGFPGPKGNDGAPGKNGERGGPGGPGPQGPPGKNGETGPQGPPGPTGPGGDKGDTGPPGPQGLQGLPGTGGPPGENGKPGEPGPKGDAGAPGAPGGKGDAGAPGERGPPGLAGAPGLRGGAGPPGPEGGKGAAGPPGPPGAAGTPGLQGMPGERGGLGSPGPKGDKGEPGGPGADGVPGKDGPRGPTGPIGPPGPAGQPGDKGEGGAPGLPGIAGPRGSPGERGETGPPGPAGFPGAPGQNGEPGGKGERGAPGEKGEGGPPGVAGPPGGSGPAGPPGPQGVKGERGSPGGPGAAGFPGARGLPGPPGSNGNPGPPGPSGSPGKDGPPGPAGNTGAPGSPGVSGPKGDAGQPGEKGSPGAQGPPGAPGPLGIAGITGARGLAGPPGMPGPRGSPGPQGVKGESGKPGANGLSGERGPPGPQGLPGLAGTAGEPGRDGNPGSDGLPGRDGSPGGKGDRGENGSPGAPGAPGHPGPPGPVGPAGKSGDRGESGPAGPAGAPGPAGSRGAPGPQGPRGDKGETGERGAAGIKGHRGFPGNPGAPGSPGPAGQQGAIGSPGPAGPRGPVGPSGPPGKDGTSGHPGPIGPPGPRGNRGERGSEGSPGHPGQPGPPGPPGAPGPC

B1: recombinant Aegyptin (mature protein with C-terminal 6xHis tag, expressed in 293-F cells) (other)
chain: RPMPEDEEPVAEGGDDDASGESEGEEETTDDAGGDGGEEENEGEEHAGDKDAGGEDTGKEENTGHDDAGEEDAGEEDAGEEDAGEEDAGEEDAEKEEGEKEDAGDDAGSDDGEEDSTGGDEGEDNAEDSKGSEKNDPADTYRQVVALLDKDTKVDHIQSEYLRSALNNDLQSEVRVPVVEAIGRIGDYSKIQGCFKSMGKDVKKVISEEEKKFKSCMSKKKSEYQCSEDSFAAAKSKLSPITSKIKSCVSSKGRHHHHHH
B2: Aegyptin C-terminus-2 (137 aa), truncated form without GEEDA repeats (other)
chain: GGDEGEDNAEDSKGSEKNDPADTYRQVVALLDKDTKVDHIQSEYLRSALNNDLQSEVRVPVVEAIGRIGDYSKIQGCFKSMGKDVKKVISEEEKKFKSCMSKKKSEYQCSEDSFAAAKSKLSPITSKIKSCVSSKGR
notes: also called C-terminal-2; C-terminus 2 domain
B3: recombinant GPVI (platelet glycoprotein VI) (receptor)
chain: QSGPLPKPSLQALPSSLVPLEKPVTLRCQGPPGVDLYRLEKLSSSRYQDQAVLFIPAMKRSLAGRYRCSYQNGSLWSLPSDQLELVATGVFAKPSLSAQPGPAVSSGGDVTLQCQTRYGFDQFALYKEGDPAPYKNPERWYRASFPIITVTAAHSGTYRCYSFSSRDPYLWSAPSDPLELVVTGTSVTPSRLPTEPPSPVAEFSEATAELTVSFTNEVFTTETSRSITASPKESDSPAGPARQYYTK

What was measured:
[1] = target: T2, soluble collagen type I (pepsin-digested, non-fibrillar, triple helical; BD Biosciences) (human, UniProt P02452 179-1192; P08123 91-1104); assay: SPR, Aegyptin over immobilized soluble collagen type I, two-state model
T2 construct: domain: pepsin-digested, soluble non-fibrillar (tertiary structure, triple helical); also called collagen I; Coll-I
T2 sequence (P02452 179-1192 limits assumed, chain 1 of 2): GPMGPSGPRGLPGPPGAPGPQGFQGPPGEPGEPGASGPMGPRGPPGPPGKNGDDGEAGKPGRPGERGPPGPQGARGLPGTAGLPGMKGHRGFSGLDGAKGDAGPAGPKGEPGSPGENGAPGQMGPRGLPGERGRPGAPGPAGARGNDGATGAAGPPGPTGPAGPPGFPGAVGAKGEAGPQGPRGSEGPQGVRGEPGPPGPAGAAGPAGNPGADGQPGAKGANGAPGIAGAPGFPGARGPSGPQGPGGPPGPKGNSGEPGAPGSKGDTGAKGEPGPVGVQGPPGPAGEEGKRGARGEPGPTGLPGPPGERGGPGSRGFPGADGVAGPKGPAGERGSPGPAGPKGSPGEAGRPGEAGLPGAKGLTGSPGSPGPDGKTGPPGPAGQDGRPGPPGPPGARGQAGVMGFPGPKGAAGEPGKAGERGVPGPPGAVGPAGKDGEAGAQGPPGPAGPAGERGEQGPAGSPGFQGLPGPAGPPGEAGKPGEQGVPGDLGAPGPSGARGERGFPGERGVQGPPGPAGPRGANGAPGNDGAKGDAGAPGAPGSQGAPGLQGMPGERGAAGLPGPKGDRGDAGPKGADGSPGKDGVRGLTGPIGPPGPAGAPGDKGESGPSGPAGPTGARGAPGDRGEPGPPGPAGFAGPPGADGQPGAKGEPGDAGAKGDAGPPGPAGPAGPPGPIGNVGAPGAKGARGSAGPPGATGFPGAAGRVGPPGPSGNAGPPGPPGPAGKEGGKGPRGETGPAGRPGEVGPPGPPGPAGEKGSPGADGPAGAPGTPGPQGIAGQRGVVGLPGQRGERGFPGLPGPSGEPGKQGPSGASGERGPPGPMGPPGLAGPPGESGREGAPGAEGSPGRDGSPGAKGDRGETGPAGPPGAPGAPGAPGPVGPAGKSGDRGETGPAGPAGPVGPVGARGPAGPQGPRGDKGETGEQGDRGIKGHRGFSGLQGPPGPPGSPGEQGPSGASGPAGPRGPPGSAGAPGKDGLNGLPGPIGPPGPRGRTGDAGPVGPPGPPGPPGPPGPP
T2 sequence (P08123 91-1104 limits assumed, chain 2 of 2): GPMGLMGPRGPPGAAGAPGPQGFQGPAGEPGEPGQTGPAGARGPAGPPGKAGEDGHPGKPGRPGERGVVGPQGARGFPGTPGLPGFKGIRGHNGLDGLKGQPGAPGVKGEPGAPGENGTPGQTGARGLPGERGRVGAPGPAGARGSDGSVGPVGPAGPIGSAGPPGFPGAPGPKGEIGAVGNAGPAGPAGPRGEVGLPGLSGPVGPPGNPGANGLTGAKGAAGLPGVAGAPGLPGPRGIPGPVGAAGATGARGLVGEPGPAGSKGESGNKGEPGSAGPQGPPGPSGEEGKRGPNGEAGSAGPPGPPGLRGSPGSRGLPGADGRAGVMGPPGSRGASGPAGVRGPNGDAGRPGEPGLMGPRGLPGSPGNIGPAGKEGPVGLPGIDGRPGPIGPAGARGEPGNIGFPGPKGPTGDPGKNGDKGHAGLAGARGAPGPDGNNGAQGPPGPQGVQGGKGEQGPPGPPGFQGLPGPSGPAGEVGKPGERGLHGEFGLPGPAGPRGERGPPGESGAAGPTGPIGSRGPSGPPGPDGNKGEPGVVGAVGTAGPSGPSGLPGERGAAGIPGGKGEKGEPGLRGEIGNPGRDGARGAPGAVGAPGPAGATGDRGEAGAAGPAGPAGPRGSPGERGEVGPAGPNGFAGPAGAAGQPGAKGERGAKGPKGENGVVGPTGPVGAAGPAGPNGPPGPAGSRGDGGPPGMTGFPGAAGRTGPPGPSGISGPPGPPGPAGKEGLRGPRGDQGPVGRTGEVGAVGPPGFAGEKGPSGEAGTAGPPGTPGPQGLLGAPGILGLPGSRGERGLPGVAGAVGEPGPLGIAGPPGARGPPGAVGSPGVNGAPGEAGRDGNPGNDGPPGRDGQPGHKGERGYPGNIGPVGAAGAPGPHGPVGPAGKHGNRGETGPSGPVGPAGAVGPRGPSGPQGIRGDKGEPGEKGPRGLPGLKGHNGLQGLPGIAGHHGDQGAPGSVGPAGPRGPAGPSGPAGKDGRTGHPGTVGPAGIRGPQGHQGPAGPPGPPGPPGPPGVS

[2] = target: T3, heat-denatured soluble collagen type I (90 min at 98° C.) (human, UniProt P02452 179-1192; P08123 91-1104); assay: SPR, Aegyptin over immobilized heat-denatured collagen I, two-state model
T3 construct: domain: pepsin-digested, soluble non-fibrillar collagen, heat-denatured; Same material as soluble collagen I, denatured in a thermocycler before immobilization; also called Collagen denatured; heat-denatured collagen
T3 sequence (P02452 179-1192 limits assumed, chain 1 of 2): as the sequence (P02452 179-1192 limits assumed, chain 1 of 2) above
T3 sequence (P08123 91-1104 limits assumed, chain 2 of 2): as the sequence (P08123 91-1104 limits assumed, chain 2 of 2) above

[3] = target: T2, soluble collagen type I …; assay: SPR, Aegyptin over immobilized soluble collagen type I, two-state model; Kd1
[4] = target: T3, heat-denatured soluble collagen type I …; assay: SPR, Aegyptin over immobilized heat-denatured collagen I, two-state model; Ka1
[5] = target: T3, heat-denatured soluble collagen type I …; assay: SPR, Aegyptin over immobilized heat-denatured collagen I, two-state model; Kd1
[6] = target: T2, soluble collagen type I …; assay: SPR kinetics at 15-40 C on immobilized collagen type I, van't Hoff analysis; value (±SE)
[7] = target: T4, RGQOGVMGFO peptide GPC-(GPP)5-GPOGPSGPRGQOGVMGFOGPKGNDGAO-(GPP)5-GPC-NH2, cross-linked (O residues as printed (hydroxyproline); C-terminal amide (NH2); cross-linked (4° C. for 48 hours in PBS, or SPDP)); assay: ELISA, inhibition of vWf (3 nM) binding to the coated RGQOGVMGFO peptide by Aegyptin (0.05-3 µM)
T4 construct: also called collagen type III vWf-related peptide

[8] = target: T2, soluble collagen type I …; assay: SPR (Biacore T100), Aegyptin over immobilized collagen type I, 25 C, two-state reaction model
[9] = target: T1, soluble collagen type III …; assay: SPR (Biacore T100), Aegyptin over immobilized collagen type III, 25 C, two-state reaction model
[10] = target: T2, soluble collagen type I …; assay: SPR, Aegyptin over immobilized soluble collagen type I, 180 s at 30 µl/min, two-state model; Ka1
[11] = target: T2, soluble collagen type I …; assay: SPR (Biacore T100), Aegyptin over immobilized collagen type I, 25 C, two-state reaction model; Ka1
[12] = target: T2, soluble collagen type I …; assay: SPR (Biacore T100), Aegyptin over immobilized collagen type I, 25 C, two-state reaction model; Kd1
[13] = target: T1, soluble collagen type III …; assay: SPR (Biacore T100), Aegyptin over immobilized collagen type III, 25 C, two-state reaction model; Ka1
[14] = target: T1, soluble collagen type III …; assay: SPR (Biacore T100), Aegyptin over immobilized collagen type III, 25 C, two-state reaction model; Kd1
[15] = target: T2, soluble collagen type I …; assay: SPR, C-terminus-2 (5-250 nM) over immobilized soluble collagen type I, two-state binding model
[16] = target: B1; assay: SPR, Aegyptin injected over immobilized GPVI

With B1 the Kd [1] was 0.98 nM, the Kd [2] was 3.32 nM and the koff [3] was 0.0103 s⁻¹. The kon [4] was 6740 M⁻¹ s⁻¹, the koff [5] was 0.0188 s⁻¹ and the “TΔS°” value [6] was 6.69 kcal/mol. For the same binder, the “ΔG°” value [6] was -11.5 kcal/mol, the “ΔH°” value [6] was -4.78 kcal/mol and the “ΔS°” value [6] was 95 J/(K*mol). The IC50 [7] was ~300 nM, the Kd [8] was 1.22 nM and the Kd [9] was 1.4 nM. For the same binder, the kon [10] was 3.63e+08 M⁻¹ s⁻¹, the kon [11] was 4.24e+06 M⁻¹ s⁻¹ and the koff [12] was 0.0154 s⁻¹. For the same binder, the kon [13] was 2.49e+06 M⁻¹ s⁻¹ and the koff [14] was 0.00605 s⁻¹.

B2 was tested, and the Kd [15] was ~60 nM.

B3: no binding (tested: 500 nM) [16].
